The source of these data is patent US20180195056.

The subject of series [1] is His14-xlGATE16-MBP.
For series [2], the system named is His14-xlLC3B-MBP.

For wheat (Triticum) Atg4 ortholog (trAtg4), the “protease concentration for significant cleavage, against its cognate substrate trAtg8 and the yeast substrate” value in series [1] is “the Xenopus xlGATE16 substrate required drastically (>100-fold) higher trAtg4 concentrations for significant cleavage”. Besides, the “substrate cleavage in protease titration (100 µM substrate, 1 h, 25° C.)” value in series [2] is on record as “xlLC3B cleavage by trAtg4 was only barely detectable”.
